In patent US20070053837A1, “Radiopharmaceuticals for cancer diagnosis and treatment” (priority 2003, published 2007):
Square brackets hold non-standard residues; d marks the D form. Peptide text beside a SMILES is read from it. * marks the point of attachment. DOTA = O=C(O)CN1CCN(CC(=O)O)CCN(CC(=O)*)CCN(CC(=O)O)CC1; Met(O2) = CS(=O)(=O)CC[C@H](N)C(=O)O; 2Thi = N[C@@H](Cc1cccs1)C(=O)O; Sar = CNCC(=O)O

Experiments:
[1] = assay type: in vitro ADME, patients
Method: Further stability test by in vitro experiments incubating ^90Y-DOTAGA-Substance P in different CSF (cerebrospinal fluid) aspirates from patients are executed.

NK1 receptors = target: T1, NK1 receptors (Homo sapiens, UniProt P25103); experiment: Binding affinity to NK-1 receptors, in vitro autoradiography, displacement of ^125I-Bolton-Hunter-SP; settings: tumor tissue expressing NK1 receptors; radioligand ^125I-Bolton-Hunter-SP; concentrations 0.1 nM to 1'000 nM; read-out: IC50 ± SEM (mean value)
T1 construct: In vitro autoradiography is performed with tumor tissue expressing NK1 receptors; from tissue
Method: Example C4 Binding Affinity to NK-1 Receptors In vitro autoradiography is performed with tumor tissue expressing NK1 receptors. The used radioligand is ^125I-Bolton-Hunter-SP. Displacement experiments are performed on successive sections with the various compounds listed in the Table given in concentrations ranging from 0.1 nM to 1'000 nM.

gliomas / glioblastoma = system: gliomas / glioblastoma; parameters: species or system patients; settings: in vivo
Text: As a third group which can serve as a control, 5 advanced cases that had been treated by the so called standard regimens with virtually no therapeutic option left anymore were included. […] In cases with biopsy alone, average survival is around 9 weeks without further treatment. In the 4 cases of this pilot study, all patients survived at least 2 months and up to 9 months, and In a special case even show a remarkable partial response. In the resected 5 cases followed by Internal radionuclide conjugate brachytherapy, overall survival appeared to be longer than expected which is in the range between 14 and 26 months. According to the only large randomized trial of 1970s which serves as historical control, resection alone would have led to an expected survival of about 4 months, and resection plus an external beam radiotherapy to a mean survival of about 9.5 months. […] This interpretation of the data is further supported by an impressive partial response (case W. […] A key question in local glioma therapy is whether one can achieve to reach infiltrating tumor cell nests or satellite lesion. […] The presently used dissipative Y-90 (range 3-6 mm) is more suitable for bulky lesions.

T1 sequence (P25103 whole entry): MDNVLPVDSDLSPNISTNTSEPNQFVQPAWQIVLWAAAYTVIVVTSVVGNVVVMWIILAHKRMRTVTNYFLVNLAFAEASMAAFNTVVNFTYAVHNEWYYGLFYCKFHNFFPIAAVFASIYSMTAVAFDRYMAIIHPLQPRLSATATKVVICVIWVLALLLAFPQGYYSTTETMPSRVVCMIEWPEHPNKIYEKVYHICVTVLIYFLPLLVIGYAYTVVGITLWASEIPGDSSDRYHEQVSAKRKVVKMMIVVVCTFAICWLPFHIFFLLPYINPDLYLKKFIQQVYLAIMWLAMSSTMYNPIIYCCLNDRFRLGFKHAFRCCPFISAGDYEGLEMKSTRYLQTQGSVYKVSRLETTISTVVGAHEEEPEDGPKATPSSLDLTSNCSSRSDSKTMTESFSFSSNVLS

Compound | IC50 (NK1 receptors) | also measured
CSCC[C@H](NC(=O)[C@H](CC(C)C)NC(=O)CNC(=O)[C@H](Cc1ccccc1)NC(=O)[C@H](Cc1ccccc1)NC(=O)[C@H](CCC(N)=O)NC(=O)[C@H](CCC(N)=O)NC(=O)[C@@H]1CCCN1C(=O)[C@H](CCCCN)NC(=O)[C@@H]1CCCN1C(=O)[C@H](CCCNC(=N)N)NC(=O)CCC(C(=O)O)N1CCN(CC(=O)O)CCN(CC(=O)O)CCN(CC(=O)O)CC1)C(N)=O (stereo partly drawn) [^90Y-DOTAGA-Substance P, ^90Y-DOTAGA-Arg^1-Pro^2-Lys^3-Pro^4-Gln^5-Gln^6-Phe^7-Phe^8-Gly^9-Leu^10-Met^11-NH2, metal not drawn] | – | stability in CSF aspirate [1]: stable for several hours; time to complete degradation in CSF aspirate [1]: ≤ 5 h
CSCC[C@H](NC(=O)[C@H](CC(C)C)NC(=O)CNC(=O)[C@H](Cc1ccccc1)NC(=O)[C@H](Cc1ccccc1)NC(=O)[C@H](CCC(N)=O)NC(=O)[C@H](CCC(N)=O)NC(=O)[C@@H]1CCCN1C(=O)[C@H](CCCCN)NC(=O)[C@@H]1CCCN1C(=O)[C@H](CCCNC(=N)N)NC(=O)CCC(C(=O)O)N1CCN(CC(=O)O)CCN(CC(=O)O)CCN(CC(=O)O)CC1)C(N)=O (single isomer, unassigned) [^111In-DOTAGA-Substance P, ^111In-DOTAGA-Arg^1-Pro^2-Lys^3-Pro^4-Gln^5-Gln^6-Phe^7-Phe^8-Gly^9-Leu^10-Met^11-NH2, metal not drawn] | – | diffusibility: distance of satellite lesion that becomes visible (gliomas / glioblastoma): 4 cm
CC(C)C[C@H](NC(=O)CNC(=O)[C@H](Cc1cccs1)NC(=O)[C@H](Cc1ccccc1)NC(=O)[C@H](CCC(N)=O)NC(=O)[C@H](CCC(N)=O)NC(=O)[C@@H]1CCCN1C(=O)[C@H](CCCCN)NC(=O)[C@@H]1CCCN1C(=O)[C@H](CCCNC(=N)N)NC(=O)CN1CCN(CC(=O)O)CCN(CC(=O)O)CCN(CC(=O)O)CC1)C(=O)N[C@@H](CCS(C)(=O)=O)C(N)=O [^111In-DOTA-Arg^1-Pro^2-Lys^3-Pro^4-Gln^5-Gln^6Phe^7-Thi^8-Gly^9-Leu^10-Met(O2)^11—NH2, metal not drawn] ({DOTA}-RPKPQQF[2Thi]GL[Met(O2)]-NH2) | 0.78 ± 0.03 nM | –

Second part, led by results:

IC50 (NK1 receptors) | Compound | also measured
3.4 ± 0.4 nM | CSCC[C@H](NC(=O)[C@H](CC(C)C)NC(=O)CN(C)C(=O)[C@H](Cc1cccs1)NC(=O)[C@H](Cc1ccccc1)NC(=O)[C@H](CCC(N)=O)NC(=O)[C@H](CCC(N)=O)NC(=O)[C@@H]1CCCN1C(=O)[C@H](CCCCN)NC(=O)[C@@H]1CCCN1C(=O)[C@H](CCCNC(=N)N)NC(=O)CN1CCN(CC(=O)O)CCN(CC(=O)O)CCN(CC(=O)O)CC1)C(N)=O [^111In-DOTA-[Thi^8, Sar^9]-Substance P, ^111In-DOTA-Arg^1-Pro^2-Lys^3-Pro^4-Gln^5-Gln^6-Phe^7-Thi^8-Sar^9-Leu^10-Met^11-NH2, metal not drawn] ({DOTA}-RPKPQQF[2Thi][Sar]LM-NH2) | –
7.7 ± 0.7 nM | CSCC[C@H](NC(=O)[C@H](CC(C)C)NC(=O)CNC(=O)[C@H](Cc1cccs1)NC(=O)[C@H](Cc1cccs1)NC(=O)[C@H](CCC(N)=O)NC(=O)[C@H](CCC(N)=O)NC(=O)[C@@H]1CCCN1C(=O)[C@H](CCCCN)NC(=O)[C@@H]1CCCN1C(=O)[C@H](CCCNC(=N)N)NC(=O)CN1CCN(CC(=O)O)CCN(CC(=O)O)CCN(CC(=O)O)CC1)C(N)=O [^111In-DOTA-[Thi^7, Thi^8]-Substance P, ^111In-DOTA-Arg^1-Pro^2-Lys^3-Pro^4-Gln^5-Gln^6-Thi^7-Thi^8-Gly^9-Leu^10-Met^11-NH2, metal not drawn] ({DOTA}-RPKPQQ[2Thi][2Thi]GLM-NH2) | –
